The record followed here is patent publication US6699869.

This series has as its target T1, (D)FPR-PNA.
T1 chain: FPR

B1: human Factor VIIa (FVIIa) and human tissue factor (TF) complex (protein)
chain 1: ANAFLEELRPGSLERECKEEQCSFEEAREIFKDAERTKLFWISYSDGDQCASSPCQNGGSCKDQLQSYICFCLPAFEGRNCETHKDDQLICVNENGGCEQYCSDHTGTKRSCRCHEGYSLLADGVSCTPTVEYPCGKIPILEKRNASKPQGRIVGGKVCPKGECPWQVLLLVNGAQLCGGTLINTIWVVSAAHCFDKIKNWRNLIAVLGEHDLSEHDGDEQSRRVAQVIIPSTYVPGTTNHDIALLRLHQPVVLTDHVVPLCLPERTFSERTLAFVRFSLVSGWGQLLDRGATALELMVLNVPRLMTQDCLQQSRKVGDSPNITEYMFCAGYSDGSKDSCKGDSGGPHATHYRGTWYLTGIVSWGQGCATVGHFGVYTRVSQYIEWLQKLMRSEPRPGVLLRAPFP
chain 2: SGTTNTVAAYNLTWKSTNFKTILEWEPKPVNQVYTVQISTKSGDWKSKCFYTTDTECDLTDEIVKDVKQTYLARVFSYPAGNVESTGSAGEPLYENSPEFTPYLETNLGQPTIQSFEQVGTKVNVTVEDERTLVRRNNTFLSLRDVFGKDLIYTLYYWKSSSSGKKTAKTNTNEFLIDVDKGENYCFSVQAVIPSRTVNRKSTDSPVECMGQEKGEFRE
As to B1, the “Kcat/KM of substrate hydrolysis” value is reported as “Factor VII: Kcat/KM=1.27×10^4 M^-1 S^-1”.
